Data published in patent US10221225B2, “Peptides and combination of peptides and scaffolds thereof for use in immunotherapy against colorectal carcinoma (CRC) and other cancers” (immatics biotechnologies GmbH, priority 2015, dated 2019).

biological target: HLA-A*02:01 (Homo sapiens, UniProt P04439, D140Y/D185E/D98H/E176V/E277Q/G131W/G231S/I119V/I121R/I166T/I218V/L300P/L318F/N151K/N90K/P208A/P217A/Q86G/Q94H/R138H/R169H/T345S); experiment: MHC binding assay (UV-ligand exchange, beta2m ELISA, peptide exchange yield); settings: MHC class I binding score; binding to HLA-A*02:01 ranged by peptide exchange yield (UV-ligand exchange, β2m ELISA)
Excerpt: Candidate peptides for T cell based therapies according to the present invention were further tested for their MHC binding capacity (affinity). The individual peptide-MHC complexes were produced by UV-ligand exchange, where a UV-sensitive peptide is cleaved upon UV-irradiation, and exchanged with the peptide of interest as analyzed. Only peptide candidates that can effectively bind and stabilize the peptide-receptive MHC molecules prevent dissociation of the MHC complexes. To determine the yield of the exchange reaction, an ELISA was performed based on the detection of the light chain (β2m) of stabilized MHC complexes. The assay was performed as generally described in Rodenko et al. (Rodenko et al., 2006).
96 well MAXISorp plates (NUNC) were coated over night with 2 ug/ml streptavidin in PBS at room temperature, washed 4× and blocked for 1 h at 37° C. in 2% BSA containing blocking buffer. Refolded HLA-A*02:01/MLA-001 monomers served as standards, covering the range of 15-500 ng/ml. Peptide-MHC monomers of the UV-exchange reaction were diluted 100 fold in blocking buffer. Samples were incubated for 1 h at 37° C., washed four times, incubated with 2 ug/ml HRP conjugated anti-β2m for 1 h at 37° C., washed again and detected with TMB solution that is stopped with […]. Absorption was measured at 450 nm. Candidate peptides that show a high exchange yield (preferably higher than 50%, most preferred higher than 75%) are generally preferred for a generation and production of antibodies or fragments thereof, and/or T cell receptors or fragments thereof, as they show sufficient avidity to the MHC molecules and prevent dissociation of the MHC complexes.

Peptide exchange | Substance
″+++″ (≥50 = +++) | 101 (GLSEGHTFQV; listed as Homo sapiens) [compound 101]
″+++″ (≥50 = +++) | 102 (KILVSLIEV; listed as Homo sapiens) [compound 102]
″++″ (≥20% = ++) | 103 (FLFGYPKRL; listed as Homo sapiens) [compound 103]
″+++″ (≥50 = +++) | 104 (ILLTIKDDTIYL; listed as Homo sapiens) [compound 104]
″+++″ (≥50 = +++) | 105 (YALDLSTFL; listed as Homo sapiens) [compound 105]
″+++″ (≥50 = +++) | 106 (SLISEKILL; listed as Homo sapiens) [compound 106]
″+++″ (≥50 = +++) | 107 (ALLGGGPYML; listed as Homo sapiens) [compound 107]
″+++″ (≥50 = +++) | 108 (SLAELVPGVGGI; listed as Homo sapiens) [compound 108]
″++″ (≥20% = ++) | 109 (ALDGDQMEL; listed as Homo sapiens) [compound 109]
″+++″ (≥50 = +++) | 110 (LLGELPRLLLL; listed as Homo sapiens) [compound 110]
″++″ (≥20% = ++) | 112 (KLGQVLIYL; listed as Homo sapiens) [compound 112]
″++″ (≥20% = ++) | 113 (ILYDLQQNL; listed as Homo sapiens) [compound 113]
″+″ (≥10% = +) | 114 (TAVGHALVL; listed as Homo sapiens) [compound 114]
″+++″ (≥50 = +++) | 115 (SLFDVSHML; listed as Homo sapiens) [compound 115]
″++″ (≥20% = ++) | 116 (LVYQFVHPI; listed as Homo sapiens) [compound 116]
″++″ (≥20% = ++) | 117 (TLQPVDNSTISL; listed as Homo sapiens) [compound 117]
″+++″ (≥50 = +++) | 118 (LLADLKTMV; listed as Homo sapiens) [compound 118]
″++″ (≥20% = ++) | 119 (ILYQTVTGL; listed as Homo sapiens) [compound 119]
″++″ (≥20% = ++) | 120 (VLYEGVDEV; listed as Homo sapiens) [compound 120]
″+++″ (≥50 = +++) | 121 (SLAPNIISQL; listed as Homo sapiens) [compound 121]
″+++″ (≥50 = +++) | 122 (SLMGMVLKL; listed as Homo sapiens) [compound 122]
″++++″ (≥75% = ++++) | 125 (KLGDFGLLVEL; listed as Homo sapiens) [compound 125]
″+++″ (≥50 = +++) | 126 (TLAKYLMEL; listed as Homo sapiens) [compound 126]
″++″ (≥20% = ++) | 128 (MLDDRAYLV; listed as Homo sapiens) [compound 128]

Peptide exchange | Substance
″+++″ (≥50 = +++) | 129 (VLIDVLKEL; listed as Homo sapiens) [compound 129]
″++″ (≥20% = ++) | 130 (GLGGSQLIDTHL; listed as Homo sapiens) [compound 130]
″++″ (≥20% = ++) | 131 (KLLDVVHPA; listed as Homo sapiens) [compound 131]
″++++″ (≥75% = ++++) | 134 (GVAGGSILKGV; listed as Homo sapiens) [compound 134]
″++″ (≥20% = ++) | 135 (KLQEEIPVL; listed as Homo sapiens) [compound 135]
″+++″ (≥50 = +++) | 137 (QLTEIKPLL; listed as Homo sapiens) [compound 137]
″+++″ (≥50 = +++) | 138 (KQFEGTVEI; listed as Homo sapiens) [compound 138]
″+++″ (≥50 = +++) | 139 (VLLNEILEQV; listed as Homo sapiens) [compound 139]
″+++″ (≥50 = +++) | 140 (LLNEILEQV; listed as Homo sapiens) [compound 140]
″+++″ (≥50 = +++) | 143 (KLSDVWKEL; listed as Homo sapiens) [compound 143]
″+++″ (≥50 = +++) | 144 (LLNDRIWLA; listed as Homo sapiens) [compound 144]
″+++″ (≥50 = +++) | 145 (LLLEVVKQV; listed as Homo sapiens) [compound 145]
″++″ (≥20% = ++) | 146 (ALSDETWGL; listed as Homo sapiens) [compound 146]
″++++″ (≥75% = ++++) | 147 (TLTELRAFL; listed as Homo sapiens) [compound 147]
″+++″ (≥50 = +++) | 148 (RLLENMTEVV; listed as Homo sapiens) [compound 148]
″+++″ (≥50 = +++) | 149 (YQFDKVGILTL; listed as Homo sapiens) [compound 149]
″+++″ (≥50 = +++) | 151 (SAQGSDVSLTACKV; listed as Homo sapiens) [compound 151]
″++″ (≥20% = ++) | 152 (KLLAVIHEL; listed as Homo sapiens) [compound 152]
″+++″ (≥50 = +++) | 153 (ILFSEDSTKLFV; listed as Homo sapiens) [compound 153]
″+++″ (≥50 = +++) | 154 (KLPSETIFVGC; listed as Homo sapiens) [compound 154]
″+++″ (≥50 = +++) | 155 (RLLGEEVVRV; listed as Homo sapiens) [compound 155]
″++++″ (≥75% = ++++) | 156 (SLMMTIINL; listed as Homo sapiens) [compound 156]
″+++″ (≥50 = +++) | 157 (SLIERDLKL; listed as Homo sapiens) [compound 157]
″+++″ (≥50 = +++) | 158 (GLLDPSVFHV; listed as Homo sapiens) [compound 158]

Peptide exchange | Substance
″++″ (≥20% = ++) | 159 (VLVDDDGIKVV; listed as Homo sapiens) [compound 159]
″+++″ (≥50 = +++) | 160 (KLLEFDQLQL; listed as Homo sapiens) [compound 160]
″+++″ (≥50 = +++) | 161 (FLKNELDNV; listed as Homo sapiens) [compound 161]
″+++″ (≥50 = +++) | 162 (KLMDYIDEL; listed as Homo sapiens) [compound 162]
″+++″ (≥50 = +++) | 163 (RLLHEVQEL; listed as Homo sapiens) [compound 163]
″++++″ (≥75% = ++++) | 164 (KMLDEILLQL; listed as Homo sapiens) [compound 164]
″++++″ (≥75% = ++++) | 165 (RLLDFPEAMVL; listed as Homo sapiens) [compound 165]
″+++″ (≥50 = +++) | 166 (GLLEARGILGL; listed as Homo sapiens) [compound 166]
″+++″ (≥50 = +++) | 167 (SVIDHIHLISV; listed as Homo sapiens) [compound 167]
″+++″ (≥50 = +++) | 168 (GLIRFPLMTI; listed as Homo sapiens) [compound 168]
″+++″ (≥50 = +++) | 169 (YLAHFIEGL; listed as Homo sapiens) [compound 169]
″+++″ (≥50 = +++) | 170 (ALAGGITMV; listed as Homo sapiens) [compound 170]
″++″ (≥20% = ++) | 171 (RLQETEGMVAV; listed as Homo sapiens) [compound 171]
″+++″ (≥50 = +++) | 172 (LLLDTVTMQV; listed as Homo sapiens) [compound 172]
″+++″ (≥50 = +++) | 173 (KLGDLMVLL; listed as Homo sapiens) [compound 173]
″++++″ (≥75% = ++++) | 174 (ILLDDNMQIRL; listed as Homo sapiens) [compound 174]
″+++″ (≥50 = +++) | 175 (TLLGGKEAQALGV; listed as Homo sapiens) [compound 175]
″++″ (≥20% = ++) | 176 (RTLDKVLEV; listed as Homo sapiens) [compound 176]
″+++″ (≥50 = +++) | 177 (ALLQGAIESV; listed as Homo sapiens) [compound 177]
″++″ (≥20% = ++) | 178 (YLFREPATI; listed as Homo sapiens) [compound 178]
″+++″ (≥50 = +++) | 179 (RLLSPLSSA; listed as Homo sapiens) [compound 179]
″+++″ (≥50 = +++) | 181 (NLFDLGGQYLRV; listed as Homo sapiens) [compound 181]
″++++″ (≥75% = ++++) | 182 (SLNKWIFTV; listed as Homo sapiens) [compound 182]
